The record followed here is patent US20170165339A1.

For this experiment, the target named is HLA-A*24 (human). As to the kind of experiment: UV peptide-exchange ELISA, yield grade. For orientation: In an ELISA, binding on a coated surface is turned into a signal by an enzyme label.
As for TYTTVPRVAF [… (SEQ ID NO: 172)], the peptide exchange yield was > 75%. IFPQFLYQF [… (SEQ ID NO: 186)]: the peptide exchange yield was > 75%. Regarding FYSRLLQKF [… (SEQ ID NO: 203)], the peptide exchange yield lay within 50 to 75%. In the case of RFHPTPLLL [… (SEQ ID NO: 193)], the peptide exchange yield was > 75%.

Turning to VYPWLGALL [… (SEQ ID NO: 177)], the peptide exchange yield is > 75%.

LYLDKATLI [… (SEQ ID NO: 198)] came in with a peptide exchange yield of 50 to 75%. For WYVNGVNYF [… (SEQ ID NO: 189)] the value was 20 to 49%.

IYDDSFIRPVTF [… (SEQ ID NO: 180)] gave a peptide exchange yield of 50 to 75%.

Turning to IYTMIYRNL [… (SEQ ID NO: 210)], the peptide exchange yield is > 75%. In turn, GFFIFNERF [… (SEQ ID NO: 190)] displayed a peptide exchange yield of 50 to 75%. In turn, IFIEVFSHF [… (SEQ ID NO: 178)] returned a peptide exchange yield of 50 to 75%.

As for RYFKGLVF [RYFKGLVF (SEQ ID NO: 188)], the peptide exchange yield is 50 to 75%.

With VFQNFPLLF [… (SEQ ID NO: 184)], the peptide exchange yield was > 75%. EYQENFLSF [… (SEQ ID NO: 206)]: the peptide exchange yield lay in the range of 50 to 75%.

As for VFTSTARAF [… (SEQ ID NO: 183)], the peptide exchange yield was 50 to 75%. Consider LYLKLWNLI [… (SEQ ID NO: 214)], for which the peptide exchange yield lay within 50 to 75%.

With EFGSLHLEFL [… (SEQ ID NO: 194)], the peptide exchange yield is < 20%. In the case of IYQLDTASI [… (SEQ ID NO: 182)] it was 50 to 75%. As for LYLDIINLF [… (SEQ ID NO: 181)], the peptide exchange yield is > 75%. VFKASKITF [… (SEQ ID NO: 191)] came in with a peptide exchange yield of 50 to 75%. As for YYLEVGKTLI [… (SEQ ID NO: 211)], the peptide exchange yield was > 75%. TYLRDQHFL [… (SEQ ID NO: 187)]: the peptide exchange yield was > 75%.

In the case of MYDSYWRQF [… (SEQ ID NO: 179)], the peptide exchange yield was > 75%. Molecule TYTQDFNKF [… (SEQ ID NO: 208)] gave a peptide exchange yield of 50 to 75%. Consider VHIPEVYLI [… (SEQ ID NO: 205)], for which the peptide exchange yield lay within 50 to 75%. Regarding IYKVGAPTI [… (SEQ ID NO: 185)], the peptide exchange yield lay within 50 to 75%.

Consider SYALLTYMI [… (SEQ ID NO: 192)], for which the peptide exchange yield is > 75%.
